Measured values published in patent US20170281796A1, “c-Met Antibody Drug Conjugate” (Sorrento Therapeutics, Inc., priority 2014, published 2017).

Tested on: MDA-MB468
Experiment: internalization of anti c-Met antibody in triple negative breast cancer cell line
Assay type: cell-based
Settings: 1 μg/ml antibody, 180 min at 37° C.; FIG. 8
Protocol: Internalization of anti c-Met antibody IgG1 H8-A2 (also called STI-0602 SEQ ID NO. 25/SEQ ID NO. 26) in MDA-MB468. MDA-MB468 were plated overnight and incubated with 1 μg/ml anti-C-Met H8A2 antibody for 180 min at 37° C. Cells were stained with anti-AF488.

B1: H8-A2: anti c-Met antibody IgG1, heavy chain SEQ ID NO. 25 / light chain SEQ ID NO. 26 (antibody, V domains shown)
VH: EVQLVQSGAEVKKPGASVKVSCKASGYTFYSEYMHWVRQAPGQGLEWMGWINPNSGNTGVAPKFQGRVTMTRNTSISTAYMELSSLRSEDTAVYYCARRGTTVSFDTWGQGTLVTVSS
VL: QLVLTQSPSVSVAPGQRVTISCSGSNSNIGNNYVSWYHHLPGTAPKLLIYDNNKRPSGIPDRFSGSKSGTSATLGITGLQPGDEAHYYCGTWDSTLSAWAFGGGTKLTVL
modifications: Homo sapians
- internalization: internalized
